Laboratory results published in PMC10128019.

Biological target: HA76Cda1 (Cda1 with the HA epitope inserted at position 76) (Ustilago maydis)
Experiment: FRET or BRET

In the case of “DyLight 550-labeled AFP1-His (AFP1^550) (natural protein)”, the FRET efficiency is reported as 23%.
